Biological target: T1, Homothorax (Hth) (Drosophila, UniProt O46339 1-487)
T1 sequence (looked up): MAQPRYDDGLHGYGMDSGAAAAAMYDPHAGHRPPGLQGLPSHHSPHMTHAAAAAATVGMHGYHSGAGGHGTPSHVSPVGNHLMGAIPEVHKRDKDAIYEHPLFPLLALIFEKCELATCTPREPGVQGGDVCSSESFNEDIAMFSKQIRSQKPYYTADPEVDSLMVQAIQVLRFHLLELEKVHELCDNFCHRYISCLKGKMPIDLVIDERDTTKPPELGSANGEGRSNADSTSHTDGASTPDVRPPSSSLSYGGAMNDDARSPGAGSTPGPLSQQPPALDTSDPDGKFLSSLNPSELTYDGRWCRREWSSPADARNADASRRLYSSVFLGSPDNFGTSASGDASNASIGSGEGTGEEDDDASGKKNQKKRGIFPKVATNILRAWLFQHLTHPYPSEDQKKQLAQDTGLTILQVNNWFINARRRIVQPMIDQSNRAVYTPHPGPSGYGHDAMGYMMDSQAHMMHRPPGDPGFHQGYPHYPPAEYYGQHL
Test: native gel or EMSA

binding result: binds
B1: Extradenticle (Exd) (natural protein, Drosophila, UniProt P40427 1-376, looked up)
chain: MEDPNRMLAHTGGMMAPQGYGLSGQDDGQNAGSENEVRKQKDIGEILQQIMSISEQSLDEAQARKHTLNCHRMKPALFSVLCEIKEKTVLSIRNTQEEEPPDPQLMRLDNMLIAEGVAGPEKGGGGAAAASAAAASQGGSLSIDGADNAIEHSDYRAKLAQIRQIYHQELEKYEQACNEFTTHVMNLLREQSRTRPITPKEIERMVQIIHKKFSSIQMQLKQSTCEAVMILRSRFLDARRKRRNFSKQASEILNEYFYSHLSNPYPSEEAKEELARKCGITVSQVSNWFGNKRIRYKKNIGKAQEEANLYAAKKAAGASPYSMAGPPSGTTTPMMSPAPPQDSMGYPMGSGGYDQQQPYDNSMGGYDPNLHQDLSP
